Test system: MS2 coat protein
Assay: apparent KD of MS2 coat protein; designed switch direction (-1 OFF switch, 1 ON switch): -1; higher = weaker reporter binding
In short: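 Each step of the titration lasted 0.8–1.5 h at the lowest concentration and 10–20 min at the highest. The protein, SNAP-549-labelled MS2 coat protein, went from 0.7 or 1.5 nM doubling to 3 µM over RNA switches transcribed on Illumina chips by stalled E. coli RNA polymerase. Normalised cluster fluorescence was curve-fitted, and the per-design median over clusters is given as apparent KD.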

[1] = input ligand: microRNA oligo, concentration not stated
[2] = Eterna round: R95, input ligand: microRNA oligo, concentration not stated
[3] = Eterna round: R95, input ligand: FMN 200 uM
[4] = Eterna round: R95, input ligand: none

Sequence | apparent KD of MS2 coat protein (input ligand: FMN 200 uM) [nM] | apparent KD of MS2 coat protein [1] [nM] | apparent KD of MS2 coat protein (input ligand: none) [nM] | apparent KD of MS2 coat protein [2] [nM] | apparent KD of MS2 coat protein [3] [nM] | apparent KD of MS2 coat protein [4] [nM]
ACAUGAGGAUCACCCAUGUGCACGUAAUGGCUCAUGUAGAGUGAGGAUAUGUGAGACGAACGAGAACAGAAGGCACAAGACAGG [Deportation 8 - Jieux - Exclusion NG 3] (Eterna round: R96, puzzle: Exclusion NG 3) | 106 | 92.8 | 116 | – | – | –
ACAUGAGGAUCACCCAUGUUUAUUGGGUACUAUACUAACAGCAAGGAUAUGCAAAUUUUUUUUACGCAGAAGGUGCAGGAACCC [JR_ExcNG3_Sub069] (Eterna round: R96, puzzle: Exclusion NG 3) | 38.3 | 33.1 | 52.8 | – | – | –
ACAUGAGGAUCACCCAUGUUUGGUUGGUUUUCUCCGGCUGUUGAGGAUAUAGUCCGGUAUCCGCGCUAGAAGGUGAGGGUUGGC [Aenatbe mod 8] (Eterna round: R96, puzzle: Exclusion NG 3) | 123 | 123 | 131 | – | – | –
ACAUGCUUAAUCUGUAUGAACAUGAGGAUCACCCAUGUAUAAGGGAAUUCUUUUGGGUUUUUUAUUGCUCGUCUUAU [JR_STOV1_Sub022] (Eterna round: R97, puzzle: Sensor, turn-off variant 1) | 379 | – | 360 | – | – | –
ACAUGGAAGCAGGAUAUGCUUGUUUAAUUGUUUGCAGAAGGGCUAACAUGAGGAUCACCCAUGUAAGAGGUCUA [JR_E6_Sub062] (puzzle: Exclusion 6) | – | – | – | 16.8 | – | –
ACAUGUAAUGCAGGAUAUGGGACACAUGAGGAUCACCCAUGUGACCAGAUGUAAUGCUAAGAGUCUCAGAAGGGUAUGUACAUG [Ex NG2 #48] (Eterna round: R96, puzzle: Exclusion NG 2) | 17.8 | 13.2 | 17.8 | – | – | –
ACAUGUCAUCGAGGAUAUUGCACACAUGAGGAUCACCCAUGUAUUCGGUUGCUCUUGCGUGAGUUCGAGAAGGCGAUGUACAUU [Ex NG2 #85] (Eterna round: R96, puzzle: Exclusion NG 2) | 134 | 215 | 262 | – | – | –
ACAUGUCAUCGAGGAUAUUGGACACAUGAGGAUCACCCAUGUACUCGGAUGCUCUACCAUGAGUUCGAGAAGGCGAUGUACAUU [Ex NG2 #78] (Eterna round: R96, puzzle: Exclusion NG 2) | 31.9 | 94.3 | 181 | – | – | –
ACAUGUCAUUGAGGAUAUUGCACACAUGAGGAUCACCCAUGUAUACGGUUGCUCUUGCGUGAGUUCGAGAAGGCGAUGUACAUU [Ex NG2 #87] (Eterna round: R96, puzzle: Exclusion NG 2) | 356 | 168 | 159 | – | – | –
ACAUGUGUUGUAGGAUAUAGGAUACAUGAGGAUCACCCAUGUGGAUUCAUGUCUAUGGAAACGUCCUAGAAGGACGACAACAUG [Ex NG2 #21] (Eterna round: R96, puzzle: Exclusion NG 2) | 120 | 56 | 90.5 | – | – | –
ACAUGUUAUGUAGGAUAUUUUACACAUGAGGAUCACCCAUGUAACCGGAGGCUUUACUAUGAGUAAGAGAAGGGUAUGAACAUG [Ex NG2 #64] (Eterna round: R96, puzzle: Exclusion NG 2) | 92.5 | 42.2 | 83.7 | – | – | –
ACAUGUUGCGCAGGAUAUGAGACACAUGAGGAUCACCCAUGUGGCUACAUGUCAUACCAAGCGUCUCAGAAGGGUGUUAACAUG [Ex NG2 #35] (Eterna round: R96, puzzle: Exclusion NG 2) | 23.5 | 20.5 | 28.4 | – | – | –
ACAUUCAGAGGAUAUGCGCAUAGAUAAGACUUUUUUUUUUAACAUGAGGAUCACCCAUGUAGAAGGCUGUAACA [Ex2 #49] (Eterna round: R97, puzzle: Exclusion 2) | 21.4 | – | 21.7 | – | – | –
ACCAGAAUAGGAUAUAACGAAAAGGACAUGAGGAUCACCCAUGUGACUACUAUUCCCUUGUUAGAAGGAUUGCGGG [Eternabot (L2) Solution 48] (Eterna round: R97, puzzle: Exclusion 5) | 32 | – | 24.9 | – | – | –
ACCAUUUCGGUGGUCUAAGAACAUGAGGAUCACCCAUGUAUCGAGGAUAUCCCAAGCAGACUAUGGGAGAAGGUGAACAGAAGG [Eternabot solution 24] (Eterna round: R96, puzzle: Exclusion NG 3) | 40.1 | 25.6 | 41.7 | – | – | –
ACCGCCGGCGUAAGGAUAUGUGAAGAAAUCCCUUUACAGAAGGUACAUGAGGAUCACCCAUGUCUUCUAGGACG [Eternabot (L1) Solution 96] (Eterna round: R97, puzzle: Brourd's mod of Exclusion 4) | 21.3 | – | 22.3 | – | – | –
ACCGUGAGGGUGAGGAUAUUCUGAGGGACGCCCUGGAAGAAGGUACAUGAGGAUCACCCAUGUGGCCUCAGACU [Eternabot (L2) Solution 99] (Eterna round: R97, puzzle: Brourd's mod of Exclusion 4) | 35.8 | – | 32.4 | – | – | –
ACCUAAAAGCUAGGAUAUACAUGAGGAUCACCCAUGUACACAGGAAGACUAACCUGUGGACUCAUGUAGAAGGAGCAUGACAAA [Raengearle] (Eterna round: R96, puzzle: Exclusion NG 2) | 117 | 349 | 283 | – | – | –
ACCUAAAAGCUAGGAUAUACAUGAGGAUCACCCAUGUACACAGGUAGACUAACCUGUGGACUCAUGUAGAAGGAGCAUGACAAA [Erongebe] (Eterna round: R96, puzzle: Exclusion NG 2) | 111 | 240 | 363 | – | – | –
ACCUCACAUGAGGAUCACCCAUGUCAGGAUAUAAAAGGAGGGCGAGGCAGCCAGGAAGUUAGAAGGGACACGCU [EX1 B.11] (Eterna round: R97, puzzle: Exclusion 1) | 21.2 | – | 23.7 | – | – | –
ACCUCACAUGAGGAUCACCCAUGUCAGGAUAUCUAAUGUAGUCGCGUUCCCGACGCUAAGAGAAGGGACGUUGA [EX1 #36] (Eterna round: R97, puzzle: Exclusion 1) | 15.8 | – | 15 | – | – | –
ACCUCACAUGAGGAUCACCCAUGUCAGGAUAUCUAUUAUUGCAGCAAUCCUGUCGCUGAGAGAAGGGACAUUAA [EX1 #27] (Eterna round: R97, puzzle: Exclusion 1) | 32.2 | – | 33 | – | – | –
ACCUCACAUGAGGAUCACCCAUGUCAGGAUAUCUUUUAAACCGCGAAUCGCGGCGCUGAGAGAAGGGACAUUAA [EX1 #20] (Eterna round: R97, puzzle: Exclusion 1) | 108 | – | 39.4 | – | – | –
ACCUCACAUGAGGAUCACCCAUGUCAGGAUAUGUACCUGGUCUAGUCAAAGACCAGAAGCAGAAGGGACUGCGG [Ria] (puzzle: Exclusion 1) | – | – | – | 87.8 | 29.7 | 106
ACCUCACAUGAGGAUCACCCAUGUCAGGAUAUUCAAACAGGCGGAACUCCGCCUUCUCGAAGAAGGGACAUUAA [Ontebileza] (Eterna round: R96, puzzle: Exclusion 1) | 62.1 | 15.9 | 16.4 | – | – | –
ACCUCACAUGAGGAUCACCCAUGUCAGGAUAUUCAAACAGGCGGAACUCCGCCUUCUCGAAGAAGGGACAUUAA [Ontebileza] (puzzle: Exclusion 1) | – | – | – | 16.6 | – | –
ACCUCACAUGAGGAUCACCCAUGUUAGGAUAUCUCGAUGCUCCACGGGCGGUAGCAUCAGAGAAGGAACGUGCU [Vematior] (puzzle: Exclusion 1) | – | – | – | 19 | – | –
ACCUUACAUGAGGAUCACCCAUGUCAGGAUAUCUCGGGCGACCGAGGGCCGGCCGCCCAGAGAAGGGACGAGGA [Aainmaso] (puzzle: Exclusion 1) | – | – | – | 11.8 | – | –
ACGAAACAUGAGGAUCACCCAUGUGAGGAUAUGUAAAGACUAGACAAAGAACAGAAAAACAGAAGGCACACAGA [JR_Exclusion1_Sub002] (puzzle: Exclusion 1) | – | – | – | 19.7 | 28 | 26.7
ACGAAAGCAAGCAAGUGAAACAUGAGGAUCACCCAUGUCCUCAUUUGCUCGUCUUAUAAAAGCUAUCGAAAGAUAGC [Mat - Sensor v3 - turn-off var 1 - Eli Mod - D47] (puzzle: Sensor v3, turn-off variant 1) | – | – | – | 157 | 11.9 | 13.2
